Experimental data: patent US20100022402A1, “Methods and Compositions for the In Vitro High-Throughput Detection of Protein/Protein Interactions” (priority 2004, published 2010)

What was measured:
[1] = biological target: DcDL1 lambda phage displaying gpD-c-myc fusion protein (bacteriophage lambda) (UniProt P03712); assay: bio-panning in 9E10-coated wells, reference DL1 phage
[2] = biological target: Lambda phage displaying SS1 scFv (DcSS1DL1), gpD-scFv-c-myc fusion protein (bacteriophage lambda) (UniProt P03712); assay: phage ELISA on anti-c-myc-coated plates, reference DcDL1
[3] = biological target: DcDL1 lambda phage displaying gpD-c-myc fusion protein (bacteriophage lambda) (UniProt P03712); assay: bio-panning of DcDL1 SCO and DCO phage in 9E10-coated wells
[4] = biological target: λD-Ubiquitin display phage (gpD fused to Ubiquitin) (bacteriophage lambda) (UniProt P03712); assay: apparent KD from titration of λD-Cue:λD-Ubiquitin co-infection by free protein
[5] = biological target: λD-CUE display phage (gpD fused to the CUE domain of Vps9p) (bacteriophage lambda) (UniProt P03712); assay: competition: free protein titrates λD-CUE:λD-Ubiquitin co-infection (MOI 0.04), loss of double resistant multilysogens
[6] = biological target: λD-CUE display phage (gpD fused to the CUE domain of Vps9p) (bacteriophage lambda) (UniProt P03712); assay: apparent KD from titration of λD-Cue:λD-Ubiquitin co-infection by free protein
[7] = biological target: λD-Ubiquitin display phage (gpD fused to Ubiquitin) (bacteriophage lambda) (UniProt P03712); assay: cell-based or functional assay

free wild type CUE protein (wtCUE, 50 amino acids), sequence (P54787 402-451 limits assumed): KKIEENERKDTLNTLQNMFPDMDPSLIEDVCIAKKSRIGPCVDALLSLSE

Anti-c-myc mAb, 9E10 (antibody)
fold recovery over DL1 phage [1]: > 200 fold
fold less binding than DcDL1 [2]: 30 times less
recovery of phages (percent of phages added) [3]: 2%

free wild type CUE protein (wtCUE, 50 amino acids) (from UniProt P54787 402-451)
Kd [4]: 2 nM

free wild type Ubiquitin protein (wtUbiquitin)
IC50 [5]: 3 nM
Kd [6]: 20 nM

λD-CUE display phage (gpD fused to the CUE domain of Vps9p) (from UniProt P03712 1-110; P54787 402-451)
Cml^r/Kan^r double resistant lysogens at an MOI of 0.008 (8×10^5 phages infecting 1×10^8 cells) [7]: 150 lysogens
MOI at which double resistant multilysogens begin to contribute to the stable lysogen population [7]: 0.0001 MOI
MOI at which formation of double resistant multilysogens begins [7]: 0.03 MOI
maximum saturation point of double resistant multilysogens (% of the available cells) [7]: 25
